Reference: patent publication US20080160006A1, “Nutrient Medium for Maintaining Neural Cells in Injured Nervous System” (priority 2001, published 2008)

System: human cortical brain cells (neurons vs glia)
Assay: Adult human cortical brain cells cultured in B27/Neurobasal A, immunostained for neurofilament and GFAP
Assay type: cell-based
Details: added in addition to FGF2, sample 4
From the text: GENERAL METHODS. Brain tissue was ethically obtained by informed consent from patients before surgery under protocols approved by the Springfield Committee for Research on Human Subjects and the UC Irvine IRB. […] Rather than using aspiration to remove all tissue, slices of tissue 1-3 mm thick were obtained from cortical access ports or tissue that was marginal to the lesion. Use of electrocautery was kept to a minimum to reduce oxyradicals and other neuron damage. […] Hibernate A contains D-glucose, pyruvate, balanced salts, amino acids, and vitamins. B27 contains 5 antioxidants and 15 other components. […] After transport on ice to a laminar flow sterile hood in the culture laboratory, meninges and white matter were removed from the tissue with a scalpel and forceps in a 35 mm dish in 2 ml transport medium. […] The cell suspension was enriched for neurons by centrifugation on a density gradient of Optiprep (Invitrogen). […] The diluted Optiprep was further diluted with transport medium (v/v) to make a gradient containing 4 steps of 1 ml in a 15 ml centrifuge tube: bottom (0.35:0.65), 0.25:0.75, 0.2:0.8, top (0.15:0.85). Up to 6 ml of cell suspension was layered over the Optiprep step gradient. […] Cells were plated at a density of 320/mm^2 onto glass coverslips coated with polylysine as previously described. […]

B1: NT3: trophic factor NT3, recombinant, Regeneron (protein, UniProt P20783 139-257, looked up)
Neurotrophin-3: YAEHKSHRGEYSVCDSESLWVTDKSSAIDIRGHQVTVLGEIKTGNSPVKQYFYETRCKEARPVKNGCRGIDDKHWNSQCKTSQTYVRALTSENNKLVGWRWIRIDTSCVCALSRKIGRT
survival of neurofilament positive cells versus FGF2 alone: no more efficacious
